Results: PMC3448610, “Characterization of Molecular Determinants of the Conformational Stability of Macrophage Migration Inhibitory Factor: Leucine 46 Hydrophobic Pocket” (PLoS ONE, 2012)
Changes are numbered by the printed parent chain. Names may count otherwise.

B1: L46A human Macrophage Migration Inhibitory Factor (natural protein, UniProt P14174 1-115, looked up)
chain: MPMFIVNTNVPRASVPDGFLSELTQQLAQATGKPPQYIAVHVVPDQAMAFGGSSEPCALCSLHSIGKIGGAQNRSYSKLLCGLLAERLRISPDRVYINYYDMNAANVGWNNSTFA
notes: initiator methionine cleaved, measured mass 12303 g/mol; numbers count on: the mature protein starting at Pro-1 (without the initiator methionine); No tag is named; also called L46A huMIF; L46A MIF; source: more than 95% pure
B2: L46G human Macrophage Migration Inhibitory Factor (natural protein, UniProt P14174 1-115, looked up)
chain: B1 chain with A47G
notes: initiator methionine cleaved, measured mass 12289 g/mol; numbers count on: the mature protein starting at Pro-1 (without the initiator methionine); No tag is named; also called L46G huMIF; L46G MIF; source: more than 95% pure
B3: L46F human Macrophage Migration Inhibitory Factor (natural protein, UniProt P14174 1-115, looked up)
chain: B1 chain with A47F
notes: initiator methionine cleaved, measured mass 12379 g/mol; numbers count on: the mature protein starting at Pro-1 (without the initiator methionine); No tag is named; also called L46F huMIF; L46F MIF; source: more than 95% pure

Target: the molecule itself
Assay: AUC; sedimentation velocity, 50,000 rpm, 20°C, PBS 1X pH 7.4, protein 5-50 µM (15 µM in Figure 3); c(s) analysis with SEDFIT; oligomeric state of the protein with itself

Protein | stoichiometry N
B1 | 3
B2 | 3
B3 | 3
